Substitutions are numbered along the chain they refer to. One block for each binder: values may come before it.
Tests used:
[1] = biological target: T1, human IL4RA-hFc (human, UniProt P24394 26-232); experiment: indirect ELISA, antigen coated 1 ug/mL
T1 construct: mature; Coating antigen in ELISA
T1 sequence (looked up): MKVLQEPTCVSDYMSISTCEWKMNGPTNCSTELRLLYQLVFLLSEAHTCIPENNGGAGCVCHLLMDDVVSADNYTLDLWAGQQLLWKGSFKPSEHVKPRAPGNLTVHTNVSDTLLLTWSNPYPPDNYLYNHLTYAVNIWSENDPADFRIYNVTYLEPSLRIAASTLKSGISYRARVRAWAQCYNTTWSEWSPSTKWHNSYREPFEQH
Experimental: Procedures: The ELISA plates were coated with human IL4RA-hFc or human IL4RA-mFc and were incubated, and target antibodies were added after blocking. […] The plates were incubated and washed before TMB (Neogen, 308177) was added for chromogenic reaction. At the end of the reaction, the absorbance at 450 nm was measured by a plate reader. The data were analyzed by SoftMax Pro 6.2.1.

[2] = biological target: T1, human IL4RA-hFc; experiment: competitive ELISA vs IL4-N-His; Ab 3 ug/mL
Experimental: (§1) The ELISA plates were coated with human IL4RA-hFc and blocked before the antibodies were added. […] After the plates were washed, mouse anti-His, HRP (purchased from CoWin Biosciences, Cat No. CW0285A) was added for incubation. The plates were subjected to another wash. Chromogenic reaction was started by adding TMB (Neogen, 308177) and was then terminated. At the end of the reaction, the OD value at 450 nm wavelength was measured by a plate reader, and was analyzed and processed by SoftMax Pro 6.2.1.
(§2) By 4-parameter logistic regression of absorbance vs. antibody concentration, the blocking EC₅₀ of the antibodies was calculated.

[3] = biological target: T1, human IL4RA-hFc; experiment: competitive ELISA; blocks IL4-N-His binding to coated IL4RA-hFc
[4] = biological target: T1, human IL4RA-hFc; experiment: competitive ELISA; blocks IL4-N-His (0.15 ug/ml) binding to coated IL4RA-hFc (2 ug/mL)
Experimental: as §1, with “CW0285M)” for “CW0285A)”
as §2

- EC50 [1]: 0.084 nM
- OD450 [2]: 0.053
- EC50 [3]: 3 nM
B1: 13E5 (antibody, V domains shown)
VH: EVQLQQSGPELVKPGASVKISCKTSGYTFTEYTIHWVKQNHGKSLEWIGGINPNNGGTVYNQNFKGKATLTVDKSSSTAYMELRSLTSEDSAVYYCARVRRGMDYWGQGTSVTVSS
VL: DIVMTQSHKFMSTSVGDRVSITCKASQDVTTAVAWYQQKPGQSPKLLIYSASYRYTGVPDRFTGSGSGTDFTFTISSVQAEDLAVYYCQQHYSAPWTFGGGTNLEIK
notes: Murine hybridoma antibody purified on protein A; also called murine antibody 13E5; antibody secreted by hybridoma LT008 (IL4RA-13E5)

- EC50 [1]: 0.068 nM
- EC50 [4]: 2.71 nM
B2: 18H7 (antibody, V domains shown)
VH: DVKLVESGGDLVNLGGSLKLSCAASGFTFSSSYMSWVRQTPERRLELVAAINSNGGKTYYPDTVKGRFTISRDNAKNTLYLQMSGLKTEDTALYYCTRQRGNYVGAMDYWGQGTSVTVSS
VL: B1 VL with T30S, A34V, K45T, Q89H, H91Y, S93G, A94S, W96P, N103K
notes: Murine hybridoma antibody purified on protein A; also called murine antibody 18H7; antibody secreted by hybridoma LT009 (IL4RA-18H7)

Source: patent US20230295312A1 (AKESO BIOPHARMA, published 2023)
